{
  "source": "patent US12037419B2",
  "about": "(The Feinstein Institutes for Medical Research, priority 2016, dated 2024)",
  "key": {"RAGE and LAIR-1": {"target": "T1, RAGE and LAIR-1 (Homo sapiens, UniProt Q15109+Q6GTX8)", "T1 construct": "endogenous in cells; host or cells: primary human monocytes from blood of healthy donors", "T1 sequence (Q15109 23-404)": "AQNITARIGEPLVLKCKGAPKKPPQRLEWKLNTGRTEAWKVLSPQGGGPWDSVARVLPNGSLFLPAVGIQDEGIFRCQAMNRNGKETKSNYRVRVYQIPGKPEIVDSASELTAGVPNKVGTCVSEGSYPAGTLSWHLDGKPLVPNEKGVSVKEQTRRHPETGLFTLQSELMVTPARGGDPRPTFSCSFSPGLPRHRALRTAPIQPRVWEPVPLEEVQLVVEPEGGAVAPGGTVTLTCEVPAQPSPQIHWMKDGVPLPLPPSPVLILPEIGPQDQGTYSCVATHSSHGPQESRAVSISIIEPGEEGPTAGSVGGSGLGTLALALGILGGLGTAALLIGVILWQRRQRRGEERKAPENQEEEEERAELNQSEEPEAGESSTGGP", "T1 sequence (Q6GTX8 22-287)": "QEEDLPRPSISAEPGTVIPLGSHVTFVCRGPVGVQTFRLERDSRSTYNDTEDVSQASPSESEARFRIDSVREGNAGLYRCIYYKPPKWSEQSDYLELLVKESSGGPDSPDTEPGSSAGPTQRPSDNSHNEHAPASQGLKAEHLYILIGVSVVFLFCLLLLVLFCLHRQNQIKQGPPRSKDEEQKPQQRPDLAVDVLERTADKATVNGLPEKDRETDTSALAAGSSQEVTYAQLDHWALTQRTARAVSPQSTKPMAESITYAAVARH", "experiment": "Proximity ligation assay (PLA) for colocalization of RAGE and LAIR-1 on monocytes", "type": "cell-based", "procedure": "Cells were then incubated overnight with a primary antibody pair directed to rabbit anti-RAGE (ab3611, Abcam) and to mouse anti-LAIR-1 (BD Bioscience), respectively. The cells were incubated with corresponding PLA probes conjugated to oligonucleotides (mouse MINUS and rabbit PLUS), then followed by ligation and rolling circle amplification in close proximity. Images were acquired using an AxioImage Z1 (Zeiss) apotome enabled (Zeiss) Fluorescent-intensity analysis of the images was performed using Zen2 (Zeiss).\nImmunofluorescence Microscopy: In situ proximal ligation assay was performed according to manufacturer's protocol (Duolink, Sigma). Following stimulation, human monocytes were washed three times with ice-cold PBS and were fixed with 4% (wt/vol) PFA for 1 hour at room temperature, seeded (2×10^5 cells) on slides using cytospin (Shandon), permeablized with chilled MeOH for 4 min and with PBS/0.1% (vol/vol) Triton X-100 and blocked for 1 h at room temperature. Cells were then incubated overnight with a primary antibody pair directed to rabbit anti-RAGE (ab3611, Abcam) and to mouse anti-LAIR-1 (BD Bioscience), respectively. The cells were incubated with corresponding PLA probes conjugated to oligonucleotides (mouse MINUS and rabbit PLUS), then followed by ligation and rolling circle amplification in close proximity. […] Quantification was performed using Zen2 (Zeiss). […]"}, "[1]": {"system": "allogeneic primary human CD4 T cells", "experiment": "Allogeneic mixed lymphocyte reaction", "type": "cell-based", "conditions": "HMGB1 3 μg/ml, C1q 25 μg/ml", "procedure": "Allogeneic CD4 T lymphocytes were isolated from blood using the Naïve CD4+ T cell isolation kit II (Miltenyi Biotec.) following the manufacturer's protocol. Cells were analyzed by flow cytometry (>90%). T cells were labeled with 5 μM Cell Trace Violet cell proliferation kit (Thermo Fisher Scientific), added to mono/macrophages at a density of 2×10^5 cells/well (a 1:2 ratio) in the presence of 1 μg/ml anti-CD3 (OKT3, eBioscience). Control cultures contained medium only or T cells or mono/macrophages alone. After 4 days, cells were stained with FITC-anti-CD4, PerCPCy 5.5-CD14, PE-LAIR-1 and fixable viability dyes (FVD, eBioscience) for 20 min at room temperature and subsequently washed and fixed. Live cells (FVD-negative cells) were then gated on CD4-positive, and cell trace violet was assessed by flow cytometry on a BD LSR II (BD Biosciences). Cell proliferation was analyzed as described (51). The % divided cells was defined as the probability that a cell has divided at least once from the original population. The division index was defined as the average number of cell divisions that a cell in the original population has undergone."}, "RAGE": {"target": "T2, RAGE (Homo sapiens, UniProt Q15109)", "T2 construct": "purchased R&D Systems", "T2 sequence (Q15109 23-342 limits assumed)": "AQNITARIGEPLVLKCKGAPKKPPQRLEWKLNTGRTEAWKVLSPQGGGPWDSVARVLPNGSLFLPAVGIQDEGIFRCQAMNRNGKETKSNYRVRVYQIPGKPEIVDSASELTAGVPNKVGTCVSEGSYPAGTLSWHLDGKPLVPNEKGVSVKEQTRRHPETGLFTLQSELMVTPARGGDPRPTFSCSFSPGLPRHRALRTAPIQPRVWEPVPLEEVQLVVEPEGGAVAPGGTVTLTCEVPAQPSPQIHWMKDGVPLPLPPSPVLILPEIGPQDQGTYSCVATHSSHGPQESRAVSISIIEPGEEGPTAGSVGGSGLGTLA", "experiment": "SPR assay of C1q and RAGE binding", "conditions": "read-out: KD of C1q and RAGE binding, 25° C., 1:1 binding ratio supposed", "procedure": "Surface Plasmon Resonance analysis (SPR): For real-time binding interaction studies, a BIAcore T200 instrument (GE Healthcare) was used. […] A 1:1 mixture of N-hydroxysuccinimide and N-ethyl-N-(dimethyaminopropyl) carbodiimide was used to activate 2 flow-cells of the CMS chip. […] The analytes were diluted in 1×PBS+0.01% (vol/vol) tween-20 buffer. The analytes were sequentially injected at a flow rate of 30 μl/min for 60 s at 25° C. The KD was dertermined using the BIAcore evaluation software 2.0 (GE Healthcare) supposing a 1:1 binding ratio."}},
  "data": [
    {"substance": "C1q: C1q purified from pooled normal human sera, obtained from Complement Technology", "values": [
      {"measurement": "RAGE-LAIR-1 colocalization (PLA fluorescence)", "setting": "RAGE and LAIR-1; C1q with or without HMGB1", "result": "only detected in the presence of C1q"},
      {"measurement": "RAGE-LAIR-1 cross-linking with C1q co-incubated with LAIR-2", "setting": "RAGE and LAIR-1; data not shown", "result": "negated the cross-linking of RAGE and LAIR-1"},
      {"measurement": "stimulation of T cells by monocytes exposed to both HMGB1 and C1q", "setting": "[1]", "result": "poor stimulators of T cells"},
      {"measurement": "Kd", "setting": "RAGE", "result": 0.855, "unit": "µM"}
    ]}
  ]
}
